B1: GpH7-A5/GpH7-B3 variant K326_07I/GpL16-k0 (antibody, human IgG1, kappa)
heavy 1: not shown
heavy 2: not shown
light: DIVMTQSPLSLPVTPGEPASISCQASESLVHSNRNTYLHWYLQKPGQSPQLLIYKVSNRFSGVPDRFSGSGSGTDFTLKISRVEAEDVGVYYCSQNTHVPPTFGQGTKVEIERTVAAPSVFIFPPSDEQLKSGTASVVCLLNNFYPREAKVQWKVDNALQSGNSQESVTEQDSKDSTYSLSSTLTLSKADYEKHKVYACEVTHQGLSSPVTKSFNRGEC
notes: Alteration in one H chain only; also called He Ab K326_07I
B2: GpH7-A5/GpH7-B3 variant K326_08L/GpL16-k0 (antibody, human IgG1, kappa)
heavy 1: not shown
heavy 2: not shown
light: DIVMTQSPLSLPVTPGEPASISCQASESLVHSNRNTYLHWYLQKPGQSPQLLIYKVSNRFSGVPDRFSGSGSGTDFTLKISRVEAEDVGVYYCSQNTHVPPTFGQGTKVEIERTVAAPSVFIFPPSDEQLKSGTASVVCLLNNFYPREAKVQWKVDNALQSGNSQESVTEQDSKDSTYSLSSTLTLSKADYEKHKVYACEVTHQGLSSPVTKSFNRGEC
notes: Alteration in one H chain only; also called He Ab K326_08L
B3: GpH7-A5/GpH7-B3 variant K326_09D/GpL16-k0 (antibody, human IgG1, kappa)
heavy 1: not shown
heavy 2: not shown
light: DIVMTQSPLSLPVTPGEPASISCQASESLVHSNRNTYLHWYLQKPGQSPQLLIYKVSNRFSGVPDRFSGSGSGTDFTLKISRVEAEDVGVYYCSQNTHVPPTFGQGTKVEIERTVAAPSVFIFPPSDEQLKSGTASVVCLLNNFYPREAKVQWKVDNALQSGNSQESVTEQDSKDSTYSLSSTLTLSKADYEKHKVYACEVTHQGLSSPVTKSFNRGEC
notes: Alteration in one H chain only; also called He Ab K326_09D
B4: GpH7-A5/GpH7-B3 variant K326_10E/GpL16-k0 (antibody, human IgG1, kappa)
heavy 1: not shown
heavy 2: not shown
light: DIVMTQSPLSLPVTPGEPASISCQASESLVHSNRNTYLHWYLQKPGQSPQLLIYKVSNRFSGVPDRFSGSGSGTDFTLKISRVEAEDVGVYYCSQNTHVPPTFGQGTKVEIERTVAAPSVFIFPPSDEQLKSGTASVVCLLNNFYPREAKVQWKVDNALQSGNSQESVTEQDSKDSTYSLSSTLTLSKADYEKHKVYACEVTHQGLSSPVTKSFNRGEC
notes: Alteration in one H chain only; also called He Ab K326_10E
B5: GpH7-A5/GpH7-B3 variant K326_19Q/GpL16-k0 (antibody, human IgG1, kappa)
heavy 1: not shown
heavy 2: not shown
light: DIVMTQSPLSLPVTPGEPASISCQASESLVHSNRNTYLHWYLQKPGQSPQLLIYKVSNRFSGVPDRFSGSGSGTDFTLKISRVEAEDVGVYYCSQNTHVPPTFGQGTKVEIERTVAAPSVFIFPPSDEQLKSGTASVVCLLNNFYPREAKVQWKVDNALQSGNSQESVTEQDSKDSTYSLSSTLTLSKADYEKHKVYACEVTHQGLSSPVTKSFNRGEC
notes: Alteration in one H chain only; also called He Ab K326_19Q
B6: GpH7-A5/GpH7-B3 variant K326_20W/GpL16-k0 (antibody, human IgG1, kappa)
heavy 1: not shown
heavy 2: not shown
light: DIVMTQSPLSLPVTPGEPASISCQASESLVHSNRNTYLHWYLQKPGQSPQLLIYKVSNRFSGVPDRFSGSGSGTDFTLKISRVEAEDVGVYYCSQNTHVPPTFGQGTKVEIERTVAAPSVFIFPPSDEQLKSGTASVVCLLNNFYPREAKVQWKVDNALQSGNSQESVTEQDSKDSTYSLSSTLTLSKADYEKHKVYACEVTHQGLSSPVTKSFNRGEC
notes: Alteration in one H chain only; also called He Ab K326_20W
B7: GpH7-A5/GpH7-B3 variant K334_02A/GpL16-k0 (antibody, human IgG1, kappa)
heavy 1: not shown
heavy 2: not shown
light: DIVMTQSPLSLPVTPGEPASISCQASESLVHSNRNTYLHWYLQKPGQSPQLLIYKVSNRFSGVPDRFSGSGSGTDFTLKISRVEAEDVGVYYCSQNTHVPPTFGQGTKVEIERTVAAPSVFIFPPSDEQLKSGTASVVCLLNNFYPREAKVQWKVDNALQSGNSQESVTEQDSKDSTYSLSSTLTLSKADYEKHKVYACEVTHQGLSSPVTKSFNRGEC
notes: Alteration in one H chain only; also called He Ab K334_02A
B8: GpH7-A5/GpH7-B3 variant K334_03V/GpL16-k0 (antibody, human IgG1, kappa)
heavy 1: not shown
heavy 2: not shown
light: DIVMTQSPLSLPVTPGEPASISCQASESLVHSNRNTYLHWYLQKPGQSPQLLIYKVSNRFSGVPDRFSGSGSGTDFTLKISRVEAEDVGVYYCSQNTHVPPTFGQGTKVEIERTVAAPSVFIFPPSDEQLKSGTASVVCLLNNFYPREAKVQWKVDNALQSGNSQESVTEQDSKDSTYSLSSTLTLSKADYEKHKVYACEVTHQGLSSPVTKSFNRGEC
notes: Alteration in one H chain only; also called He Ab K334_03V
B9: GpH7-A5/GpH7-B3 variant K334_04F/GpL16-k0 (antibody, human IgG1, kappa)
heavy 1: not shown
heavy 2: not shown
light: DIVMTQSPLSLPVTPGEPASISCQASESLVHSNRNTYLHWYLQKPGQSPQLLIYKVSNRFSGVPDRFSGSGSGTDFTLKISRVEAEDVGVYYCSQNTHVPPTFGQGTKVEIERTVAAPSVFIFPPSDEQLKSGTASVVCLLNNFYPREAKVQWKVDNALQSGNSQESVTEQDSKDSTYSLSSTLTLSKADYEKHKVYACEVTHQGLSSPVTKSFNRGEC
notes: Alteration in one H chain only; also called He Ab K334_04F
B10: GpH7-A5/GpH7-B3 variant K334_05P/GpL16-k0 (antibody, human IgG1, kappa)
heavy 1: not shown
heavy 2: not shown
light: DIVMTQSPLSLPVTPGEPASISCQASESLVHSNRNTYLHWYLQKPGQSPQLLIYKVSNRFSGVPDRFSGSGSGTDFTLKISRVEAEDVGVYYCSQNTHVPPTFGQGTKVEIERTVAAPSVFIFPPSDEQLKSGTASVVCLLNNFYPREAKVQWKVDNALQSGNSQESVTEQDSKDSTYSLSSTLTLSKADYEKHKVYACEVTHQGLSSPVTKSFNRGEC
notes: Alteration in one H chain only; also called He Ab K334_05P
B11: GpH7-A5/GpH7-B3 variant K334_07I/GpL16-k0 (antibody, human IgG1, kappa)
heavy 1: not shown
heavy 2: not shown
light: DIVMTQSPLSLPVTPGEPASISCQASESLVHSNRNTYLHWYLQKPGQSPQLLIYKVSNRFSGVPDRFSGSGSGTDFTLKISRVEAEDVGVYYCSQNTHVPPTFGQGTKVEIERTVAAPSVFIFPPSDEQLKSGTASVVCLLNNFYPREAKVQWKVDNALQSGNSQESVTEQDSKDSTYSLSSTLTLSKADYEKHKVYACEVTHQGLSSPVTKSFNRGEC
notes: Alteration in one H chain only; also called He Ab K334_07I

These binders were tested against T1, FcγRIa (human, UniProt P12314 16-292) (assay: SPR (Biacore), relative binding; control HeCon Ab GpH7-A5/GpH7-B3/GpL16-k0).
T1 construct: extracellular domain; also called FcgRI; FcgRIa; not shown: His tag attached to the C terminus
T1 sequence (P12314 16-292): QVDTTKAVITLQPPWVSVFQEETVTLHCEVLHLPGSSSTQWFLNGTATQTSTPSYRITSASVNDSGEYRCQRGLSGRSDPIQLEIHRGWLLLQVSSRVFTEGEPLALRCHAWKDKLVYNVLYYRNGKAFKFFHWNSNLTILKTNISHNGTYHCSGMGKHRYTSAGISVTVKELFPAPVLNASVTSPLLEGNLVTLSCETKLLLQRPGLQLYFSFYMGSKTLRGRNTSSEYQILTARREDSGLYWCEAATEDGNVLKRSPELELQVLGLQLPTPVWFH
With B1 the He/Con_1a was 101 % of control (=100).
In the case of B2, the He/Con_1a is reported as 100 % of control (=100).
With B3 the He/Con_1a was 103 % of control (=100).
In the case of B4, the He/Con_1a is reported as 104 % of control (=100).
B5 was tested, and the He/Con_1a was 102 % of control (=100).
In the case of B6, the He/Con_1a is reported as 103 % of control (=100).
In the case of B7, the He/Con_1a is reported as 106 % of control (=100).
B8 was tested, and the He/Con_1a was 105 % of control (=100).
In the case of B9, the He/Con_1a is reported as 105 % of control (=100).
B10 was tested, and the He/Con_1a was 104 % of control (=100).
With B11 the He/Con_1a was 104 % of control (=100).

Reference: US20150344570A1 (published 2015)
